Measurements from patent US6001988.

What was measured:
[1] = target: T1, L-selectin (LS-Rg) (Homo sapiens) (UniProt P14151); experiment: filter
T1 sequence: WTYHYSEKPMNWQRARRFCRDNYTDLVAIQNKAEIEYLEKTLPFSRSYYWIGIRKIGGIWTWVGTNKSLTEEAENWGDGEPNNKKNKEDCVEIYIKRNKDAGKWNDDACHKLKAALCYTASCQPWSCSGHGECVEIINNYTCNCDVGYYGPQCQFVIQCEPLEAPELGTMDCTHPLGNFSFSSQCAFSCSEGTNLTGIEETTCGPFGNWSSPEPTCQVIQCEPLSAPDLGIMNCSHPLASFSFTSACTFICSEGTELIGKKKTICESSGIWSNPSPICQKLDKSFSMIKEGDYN

[2] = target: T2, wheat germ agglutinin (WGA) (Triticum vulgare) (UniProt P10968); experiment: filter
T2 sequence: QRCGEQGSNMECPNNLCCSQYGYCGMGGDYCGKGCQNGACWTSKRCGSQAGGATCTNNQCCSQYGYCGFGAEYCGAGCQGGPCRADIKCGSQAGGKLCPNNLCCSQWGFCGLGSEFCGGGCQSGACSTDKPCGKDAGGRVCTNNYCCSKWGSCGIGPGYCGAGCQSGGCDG

[3] = target: T3, E-selectin (ES-Rg) (Homo sapiens) (UniProt P16581); experiment: filter
T3 sequence: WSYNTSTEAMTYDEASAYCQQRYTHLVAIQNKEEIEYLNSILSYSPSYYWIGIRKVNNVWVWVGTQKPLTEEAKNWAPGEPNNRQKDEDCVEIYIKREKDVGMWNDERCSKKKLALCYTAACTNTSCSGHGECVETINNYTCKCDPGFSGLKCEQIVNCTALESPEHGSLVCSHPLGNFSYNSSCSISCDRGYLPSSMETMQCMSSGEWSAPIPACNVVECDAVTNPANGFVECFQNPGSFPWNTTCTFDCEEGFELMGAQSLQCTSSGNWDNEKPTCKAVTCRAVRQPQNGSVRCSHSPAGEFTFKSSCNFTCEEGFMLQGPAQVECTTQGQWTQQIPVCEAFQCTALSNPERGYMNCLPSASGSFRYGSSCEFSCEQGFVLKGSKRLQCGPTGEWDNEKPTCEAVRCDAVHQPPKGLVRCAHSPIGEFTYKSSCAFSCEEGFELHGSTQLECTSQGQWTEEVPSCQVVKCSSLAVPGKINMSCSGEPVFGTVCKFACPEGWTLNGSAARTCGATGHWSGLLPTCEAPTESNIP

[4] = target: T4, P-selectin (PS-Rg) (Homo sapiens) (UniProt P16109); experiment: filter
T4 sequence: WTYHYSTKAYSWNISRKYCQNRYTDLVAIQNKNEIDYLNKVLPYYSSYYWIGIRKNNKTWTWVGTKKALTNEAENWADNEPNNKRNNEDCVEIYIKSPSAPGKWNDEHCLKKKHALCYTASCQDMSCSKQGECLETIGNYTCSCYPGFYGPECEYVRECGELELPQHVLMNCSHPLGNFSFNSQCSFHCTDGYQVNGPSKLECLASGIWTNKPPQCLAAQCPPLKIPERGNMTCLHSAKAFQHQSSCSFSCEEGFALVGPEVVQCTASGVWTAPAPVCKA

[5] = target: CD22beta (CD22beta-Rg) (UniProt P20273); experiment: filter
[6] = system: Datura stramonium lectin (Datura stramonium); experiment: filter; settings: 2'-NH2 all C and U
[7] = target: T1, L-selectin (LS-Rg) (Homo sapiens); experiment: inhibition; settings: 2'-NH2 all C and U; inhibits LS-Rg binding to immobilized sialyl-Lewis X, room temp, Ca/Mg
[8] = target: T5, L-selectin on PBMC (Homo sapiens) (UniProt P14151); settings: 2'-NH2 all C and U; PBMC binding on ice; competed by DREG-56 anti-L-selectin antibody
T5 sequence: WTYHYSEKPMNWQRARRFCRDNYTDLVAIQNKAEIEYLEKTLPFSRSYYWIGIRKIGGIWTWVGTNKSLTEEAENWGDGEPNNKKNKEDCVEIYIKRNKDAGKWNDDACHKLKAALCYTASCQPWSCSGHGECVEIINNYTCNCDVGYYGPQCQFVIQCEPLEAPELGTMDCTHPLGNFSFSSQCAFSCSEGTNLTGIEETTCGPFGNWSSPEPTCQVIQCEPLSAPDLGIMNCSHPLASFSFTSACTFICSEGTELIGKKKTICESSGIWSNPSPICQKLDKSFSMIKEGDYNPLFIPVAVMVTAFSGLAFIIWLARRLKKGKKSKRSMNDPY

[9] = 2'-NH2 all C and U, HBSS, room temp
[10] = 2'-NH2 on all C and U, <5% binding at highest protein, 4 C, HSMC

Sequence of CD22beta (CD22beta-Rg) (P20273 20-687): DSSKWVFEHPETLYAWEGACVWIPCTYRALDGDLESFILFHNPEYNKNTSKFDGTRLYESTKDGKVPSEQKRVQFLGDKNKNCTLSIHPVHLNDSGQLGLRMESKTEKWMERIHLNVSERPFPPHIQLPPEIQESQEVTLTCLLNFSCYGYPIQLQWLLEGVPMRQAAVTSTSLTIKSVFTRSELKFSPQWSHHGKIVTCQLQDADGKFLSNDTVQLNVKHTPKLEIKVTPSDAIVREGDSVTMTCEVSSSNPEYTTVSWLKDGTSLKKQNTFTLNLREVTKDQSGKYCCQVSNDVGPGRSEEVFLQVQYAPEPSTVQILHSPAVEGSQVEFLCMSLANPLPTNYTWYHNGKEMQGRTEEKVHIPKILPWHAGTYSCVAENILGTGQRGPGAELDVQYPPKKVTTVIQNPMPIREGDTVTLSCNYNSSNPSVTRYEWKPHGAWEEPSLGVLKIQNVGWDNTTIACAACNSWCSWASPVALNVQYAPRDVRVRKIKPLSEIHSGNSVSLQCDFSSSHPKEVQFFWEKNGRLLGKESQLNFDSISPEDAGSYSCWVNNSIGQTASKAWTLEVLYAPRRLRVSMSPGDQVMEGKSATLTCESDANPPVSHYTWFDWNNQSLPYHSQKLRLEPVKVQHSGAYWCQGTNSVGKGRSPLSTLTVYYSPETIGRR

CTACCTACGATCTGACTAGCCGAGGATCTGATACTTATTGAACATAMCCGCACNCAGGCTTGCTTACTCTCATGTAGTTCC [102]
Kd ([1]; 37 C, room temp not determined): 7.9 nM

CTACCTACGATCTGACTAGCCGAGGTAGTCGTTATAGGGTRCRCACGACACAAARCRGTRGCTTACTCTCATGTAGTTCC [127]
Kd ([2]; <3% binding at 1.4 µM, room temp): > 100 µM
Kd ([3]; room temp, Ca/Mg buffer): 1.3 µM
Kd ([4]; room temp, Ca/Mg buffer): 0.78 µM
Kd ([5]; <1% binding at 700 nM, room temp): > 100 µM
Kd ([1]; room temp, 890 pM at 37 C): 1 nM

CTACCTACGATCTGACTAGCNNNNNNNNNNNNNNNNNNNNNNNNNNNNNNNNNNNNNNNNGCTTACTCTCATGTAGTTCC [random 40BH ssDNA pool]
Kd ([1]; estimate for random ssDNA): 10000 nM

GGGAAAAGCGAAUCAUACACAAGAAAGGGAUGGGAUUGGGACGAGCGGCCAAGACUCGGCGGGAACGAAGGGUCCGCUCCGCCAGAGACCAACCGAGAA [6.8]
Kd ([6]; <5% bound at 1 uM protein): > 20 µM

GGGAAAAGCGAAUCAUACACAAGACAGCGGCGGAGUCAGUGAAAGCGUGGGGGGYGCGGGAGGUCUACCCUGACGCUCCGCCAGAGACCAACCGAGAA [6.14]
Kd ([2]; 2'-NH2 all C and U, <5% bound at 1 uM WGA): > 20 µM

GGGAAAAGCGAAUCAUACACAAGACGGCUGUGUGGUGUUGGAGCGUCAUAGUAGGAGUCGUCACGAACCAAGGCGCUCCGCCAGAGACCAACCGAGAA [11.24]
Kd ([6]; <5% bound at 1 uM protein): > 20 µM

GGGAAAAGCGAAUCAUACACAAGACUGGCAAGRAGUGCGUGAGGGUACGUUAGGGGUGUUUGGGCCGAUCGCAUGCUCCGCCAGAGACCAACCGAGAA [11.7]
Kd [2, 9]: 0.016 µM

GGGAAAAGCGAAUCAUACACAAGAGAGGUGRAUGGGAGAGUGGAGCCCGGGUGACUCGAGGAUUCCCGUGCUCCGCCAGAGACCAACCGAGAA [11.3]
Kd [2, 9]: 0.41 µM

GGGAAAAGCGAAUCAUACACAAGAGUAGGAGGUUCCAUCACCAGGACUCGGCGGGAACGGAAGGUGAUGSGCUCCGCCAGAGACCAACCGAGAA [11.35]
Kd [2, 9]: 0.09 µM

GGGAAAAGCGAAUCAUACACAAGANNNNNNNNNNNNNNNNNNNNNNNNNNNNNNNNNNNNNNNNNNNNNNNNNNGCUCCGCCAGAGACCAACCGAGAA [random 50N9 RNA pool]
Kd ([2]; 2'-NH2 all C and U, no binding at 36 uM WGA monomer): > 4000 µM

GGGAAAAGCGAAUCAUACACAAGAUUGGUCGUACUGGACAGAGCCGUGGUAGAGGGAUUGGGACAAAGUGUCAGCUCCGCCAGAGACCAACCGAGAA [11.20]
Kd ([6]; HBSS, room temp): 11.2 µM

GGGAGGACGAUGCGGAAGUGAAGCUAAAGCGGAGGGCCAUUCAGUUUCNCACCACAGACGACUCGCCCGA [F14.2]
Kd ([3]; 2'-NH2 all C and U, 4 C, HSMC): 1.9 µM
Kd ([4]; 2'-NH2 all C and U, 4 C, HSMC): 0.45 µM
Kd [5, 10]: > 20 µM
Kd ([1]; 2'-NH2 all C and U, 4 C, HSMC, 7.2 nM at room temp): 1.8 nM

GGGAGGACGAUGCGGAAGUGAAGCUAAAGSGGAGGGCCACUCAGAAACGCACCACAGACGACUCGCCCGA [F14.13]
Kd ([1]; 2'-NH2 all C and U, 4 C, HSMC, biphasic, fraction 0.74, low affinity Kd 270 nM): 1.3 nM

GGGAGGACGAUGCGGCCGUACAUGGUAARCCUCGAAGGAUUCCCGGGAUGAUCCCCAGACGACUCGCCCGA [F14.27]
Kd ([1]; 2'-NH2 all C and U, 4 C, HSMC): 145 nM

GGGAGGACGAUGCGGNNNNNNNNNNNNNNNNNNNNNNNNNNNNNNNNNNNNNNNNCAGACGACUCGCCCGA [random 40N7 RNA pool]
Kd ([1]; 2'-NH2 all C and U, estimate for random RNA): 10000 nM

GGGAGGACGAUGCGGUAACAACAAUCAAGGCGGGUUYACCGCCCCAGUAUGAGUACAGACGACUCGCCCGA [F14.12]
IC50 [7]: 0.01 µM
Kd [8]: 0.0013 µM
Kd ([3]; 2'-NH2 all C and U, 4 C, HSMC): 0.047 µM
Kd ([4]; 2'-NH2 all C and U, 4 C, HSMC): 0.91 µM
Kd ([5]; 2'-NH2 all C and U, <5% bound at up to 660 nM, 4 C): > 20 µM
Kd ([1]; 2'-NH2 all C and U, 4 C, HSMC, Table IX prints 5.8 pM (fraction 0.68, low affinity Kd 16.2 nM), 1.7 nM at room temp): 0.06 nM

GGGAGGACGAUGCGGUCCAGAGCGUGAAGAUCAACGUCCCGGNGUCGAAGACAGACGACUCGCCCGA [F14.70]
Kd ([3]; 2'-NH2 all C and U, 4 C, HSMC): 5.9 µM
Kd [5, 10]: > 20 µM
Kd ([1]; 2'-NH2 all C and U, 4 C, HSMC, biphasic, fraction 0.75, low affinity Kd 254 nM, 7.8 nM at room temp): 2 nM
